Assay results published in US20150246136A1 (Bayer, published 2015).

Target: T1, C4.4a (Homo sapiens, UniProt O95274 31-326)
T1 sequence (looked up): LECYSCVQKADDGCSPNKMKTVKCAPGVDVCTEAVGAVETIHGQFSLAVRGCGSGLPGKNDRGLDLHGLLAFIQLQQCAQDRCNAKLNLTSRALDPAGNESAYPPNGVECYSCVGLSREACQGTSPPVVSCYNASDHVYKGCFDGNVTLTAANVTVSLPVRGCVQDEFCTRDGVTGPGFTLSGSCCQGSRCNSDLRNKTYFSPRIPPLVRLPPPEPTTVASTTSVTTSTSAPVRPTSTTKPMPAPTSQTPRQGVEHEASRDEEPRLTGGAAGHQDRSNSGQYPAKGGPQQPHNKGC
Assay: cell-based or functional assay

IC50 (nM) A549: C4.4a: 0.053 nM
B1: Example 217 (antibody, human IgG1, lambda, V domains shown)
VH: EVQLLESGGGLVQPGGSLRLSCAASGFTFSDYQMTWIRQTPGKGLEWVSGISWNGGSTHYADSVKGRFTISRDNSKNTLYLQMNSLRAEDTAVYYCAKGDYLVYSSYYFKSWGQGTLVTVSS
VL: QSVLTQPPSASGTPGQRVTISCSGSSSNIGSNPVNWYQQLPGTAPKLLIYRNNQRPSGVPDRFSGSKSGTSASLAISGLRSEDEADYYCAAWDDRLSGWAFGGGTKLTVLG
modifications: linker-toxophore on cysteine S
